Data on three molecules can be found in patent publication US20230091175A1.

For orientation: Kd means the equilibrium constant for the complex coming apart.

For test [1], the target named is human IL 12 protein (Recombinant His, C-terminus) (aa23-328) (LS-G134297-50: LSBio, Inc.) (human) (UniProt P29460). In words: SPR (Biacore 8K), antigen immobilized on CM4 chip, antibody as analyte. (In SPR one partner is held on a chip, and binding of the other changes the refractive index at the surface.)
human IL 12 protein (Recombinant His, C-terminus) (aa23-328) (LS-G134297-50: LSBio, Inc.) (human), sequence (P29460 23-328, form in doubt): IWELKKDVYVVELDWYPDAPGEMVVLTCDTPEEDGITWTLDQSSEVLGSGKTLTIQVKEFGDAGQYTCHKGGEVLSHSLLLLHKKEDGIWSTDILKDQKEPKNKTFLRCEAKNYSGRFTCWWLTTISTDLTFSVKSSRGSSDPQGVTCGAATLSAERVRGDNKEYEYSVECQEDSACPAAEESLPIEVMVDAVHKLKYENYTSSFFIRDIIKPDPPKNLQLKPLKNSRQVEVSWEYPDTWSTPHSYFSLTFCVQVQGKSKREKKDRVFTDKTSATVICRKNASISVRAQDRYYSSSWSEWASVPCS
The target is the same in test [2]. In words: SPR (Biacore 8K); affinity ratio with the original antibody as 1.0.

B1: mouse anti-human IL-12 antibody (clone 22-4), original (unmodified) (Fab, V domains shown, not shown: a dimerising Fc or GST)
VH: EVQLQESGPSLVKPSQTLSLTCSVTGDSITSGYWNWIRKFPGNKLEYMGYISYSGSTYYNPSLKSRISITRDTSKNQNYLQLNSVTTEDTATYYCARRDTTVVVPYYFDYWGQGTTLTVSS
VL: DIVMTQSHKFMSTSVGDRVSITCKASQDVGTAVAWYQQKPGQSPKLLIYWASTRHTGVPGRFTGSGSGTDFTLTINNVQSEDLADYFCQQYSSYPLTFGAGTKLELKR
Turning to B1, the Kd in test [1] is 10.3 nM. Further, the KD ratio in test [2] was found to be 1.

B2: R3 variant of anti-IL-12 antibody (clone 22-4) (Fab, V domains shown, not shown: a dimerising Fc or GST)
VH: EVQLQESGPSLVKPSQTLSLTCSVTGDSITSGYWNWIRKFPGNKLEYMGYISYSGSTYYNPSLKSRISITRDTSKNQNYLQLNSVTTEDTATYYCARRDTTVVVPYYFDYWGQGTTLTVSS
VL: DIVMTQSHKFMSTSVGDRVSITCKASQDVGTAVAWYQQKPGQSPKLLIYWASTRHTGVPGRFRGRGRGTDFTLTINNVQSEDLADYFCQQYSSYPLTFGAGTKLELKR
Consider B2, for which the dissociation constant Kd in test [1] stood at 0.497 nM. Also, the KD ratio in test [2] turned out to be 20.8.

B3: R4 variant of anti-IL-12 antibody (clone 22-4) (Fab, V domains shown, not shown: a dimerising Fc or GST)
VH: EVQLQESGPSLVKPSQTLSLTCSVTGDSITSGYWNWIRKFPGNKLEYMGYISYSGSTYYNPSLKSRISITRDTSKNQNYLQLNSVTTEDTATYYCARRDTTVVVPYYFDYWGQGTTLTVSS
VL: DIVMTQSHKFMSTSVGDRVSITCKASQDVGTAVAWYQQKPGQSPKLLIYWASTRHTGVPGRFRGRGRGTRFTLTINNVQSEDLADYFCQQYSSYPLTFGAGTKLELKR
For the molecule B3, the Kd in test [1] was determined as 0.245 nM. Also, the KD ratio in test [2] was found to be 42.2.
